{"source": "patent US20140378374A1", "about": "“METHODS OF TREATMENT” (GlaxoSmithKline Intellectual Property (No.2) Limited, priority 2013, published 2014)", "assay": "Phase 1 single-dose (30 mg subcutaneous) pharmacokinetics and safety study in T2DM with normal or varying degrees of renal impairment", "format": "in vivo, human", "settings": "for AUC Ratio / Cmax Ratio: single 30 mg dose", "experimental": "A Phase 1, open-label, nonrandomized study evaluated the pharmacokinetics of a single 30 mg subcutaneous dose of albiglutide in subjects with T2DM and normal or varying degrees of renal impairment. Eligible subjects were men and women from 30 to 75 years of age (inclusive) with T2DM and HbA1c between ≧6.0% and ≦10.5%. […] Participants on hemodialysis were on stable treatment for at least 3 months before screening and had serum albumin ≧[…] and hemoglobin ≧8 g/dL.\nVenous blood samples for determination of albiglutide were drawn on Day 1 prior to dosing and 6 hours after dosing and on Days 2, 3, 5, 10, 14, 21, 29, and 42 after administration of albiglutide (30 mg subcutaneous). In subjects undergoing hemodialysis, Day 1 was planned to be the day before a scheduled hemodialysis day (Day 2). Following blood sampling on Day 1 (before dosing and 6 hours after dosing) blood samples were taken before and after each dialysis procedure over the next 7 weeks. For all subjects, each blood sample was about 3 mL and drawn into an EDTA collection tube, immediately placed on crushed ice and water, and centrifuged for 10 minutes at 1,500 g at 4° C. Approximately 1 mL of plasma was transferred to a sterile 1.8-mL tube (Nunc® CryoTube®, Sigma-Aldrich) and stored at −70° C. until assaying.\nAlbiglutide PK samples collected in participants undergoing hemodialysis also were analyzed to assess predialysis and postdialysis changes in albumin concentrations.\nPlasma samples were analyzed for albiglutide by using a validated enzyme-linked immunosorbent assay (ELISA) and were diluted 100-fold with sample buffer before analysis. Albiglutide was captured using a rabbit anti-human GLP-1 (7-36) amide and detected using a rabbit anti-HSA conjugated to biotin. ELISA experiments were performed using the Furoninc® 96 well plate (Nunc, cat. #437796) with the following steps. 1) […], antibody coating solution of 5.0 μg/mL anti-GLP-1 (7-36) Amide (human) IgG (Peninsula Laboratories, cat. # T-4111) in 50 mM sodium carbonate-bicarbonate buffer pH 9.4 was added to each well, sealed with aseptic sealing tape and incubated for 24 hours (±12 hours) at nominally 4° C. The microtiter plate was washed 5 times with […] wash buffer (10 mM Sodium Phosphate, 150 mM NaCl, 0.05% Tween 20, pH 7.5) using plate washer; 2) […] blocking buffer of SuperBlock in PBS (SuperBlock (Pierce, cat. #37515) in PBS, 5.0% Rabbit Plasma) was added to each well, sealed and incubated with constant shaking for approximately 1.5 hour (±30 minutes) at ambient room temperature and the microtiter plate washed; 3) 100 mL of either standards, quality controls (QCs) or samples were added per well, sealed, incubated and washed; 4) 100 mL of Detection Antibody solution of Biotin Labelled Rabbit polyclonal to Human Serum Albumin (NOVUS Biologicals, cat. # NB 100-1674) was added per well, sealed, incubated and washed; 5) 100 mL of Reporter Tag solution (Streptavidin-HRPO Conjugate, Caltag, cat. # SA1007) was added per well, sealed, incubated and washed; 6) 100 mL of Development Substrate Pico (SuperSignal ELISA, Pierce, cat. #37070) was added, incubated and the plate read using plate reader (Wallac 1420 Victor Multilabel Counter, Perkin Elmer Life Sciences, Boston, Mass.). Sample concentrations were determined by interpolation from the standard curve, which was fitted using a weighted (1/x), 4-parameter logistic equation. The validated range of this assay (based on 10 μL of human plasma) is 50 ng/mL to 1,500 ng/mL.\nDuring the single dose study and 3 of the phase 3 trials (Harmony 2, 4 and 5), the assay process was modified from manual pipetting of samples to robotic pipetting.\nPharmacokinetic calculations were based on actual sampling collection times. All statistical analyses of pharmacokinetic parameters were performed using SAS Version 9.1 or later (SAS Institute, Inc., Cary, N.C.). […]"}
{"substance": "Albiglutide: recombinant fusion protein of 2 copies of modified human GLP-1 (fragment 7-36(A8G)) genetically fused in series to recombinant human serum albumin", "values": [{"measurement": "Any event", "setting": "Hemodialysis (n = 10)", "value": "8 (80) n (%)"}, {"measurement": "Dizziness", "setting": "Hemodialysis (n = 10)", "value": "2 (20) n (%)"}, {"measurement": "Fatigue", "setting": "Hemodialysis (n = 10)", "value": "2 (20) n (%)"}, {"measurement": "Headache", "setting": "Hemodialysis (n = 10)", "value": "3 (30) n (%)"}, {"measurement": "Hypoglycemia, Documented Symptomatic", "setting": "Hemodialysis (n = 10)", "value": "1 (10) n (%)"}, {"measurement": "Nausea", "setting": "Hemodialysis (n = 10)", "value": "5 (50) n (%)"}, {"measurement": "Total no. of events", "setting": "Hemodialysis (n = 10)", "value": 38, "unit": "n"}, {"measurement": "Vomiting", "setting": "Hemodialysis (n = 10)", "value": "5 (50) n (%)"}, {"measurement": "AUC Ratio", "setting": "Hemodialysis:Normal", "value": 0.99}, {"measurement": "Cmax Ratio", "setting": "Hemodialysis:Normal", "value": 1.11}, {"measurement": "AUC Ratio", "setting": "Hemodialysis:Normal, listed as albiglutide", "value": "0.99 (0.63, 1.57)"}, {"measurement": "Any event", "setting": "Moderate (n = 11)", "value": "3 (27.3) n (%)"}, {"measurement": "Dizziness", "setting": "Moderate (n = 11)", "value": "0 n (%)"}, {"measurement": "Fatigue", "setting": "Moderate (n = 11)", "value": "0 n (%)"}, {"measurement": "Headache", "setting": "Moderate (n = 11)", "value": "0 n (%)"}, {"measurement": "Hypoglycemia, Documented Symptomatic", "setting": "Moderate (n = 11)", "value": "0 n (%)"}, {"measurement": "Nausea", "setting": "Moderate (n = 11)", "value": "0 n (%)"}, {"measurement": "Total no. of events", "setting": "Moderate (n = 11)", "value": 4, "unit": "n"}, {"measurement": "Vomiting", "setting": "Moderate (n = 11)", "value": "0 n (%)"}, {"measurement": "AUC Ratio", "setting": "Moderate:Normal", "value": 1.32}, {"measurement": "Cmax Ratio", "setting": "Moderate:Normal", "value": 1.21}, {"measurement": "AUC Ratio", "setting": "Moderate:Normal, listed as albiglutide", "value": "1.32 (0.96, 1.80)"}, {"measurement": "Any event", "setting": "Normal (n = 10)", "value": "8 (80) n (%)"}, {"measurement": "Dizziness", "setting": "Normal (n = 10)", "value": "0 n (%)"}, {"measurement": "Fatigue", "setting": "Normal (n = 10)", "value": "0 n (%)"}, {"measurement": "Headache", "setting": "Normal (n = 10)", "value": "0 n (%)"}, {"measurement": "Hypoglycemia, Documented Symptomatic", "setting": "Normal (n = 10)", "value": "0 n (%)"}, {"measurement": "Nausea", "setting": "Normal (n = 10)", "value": "0 n (%)"}, {"measurement": "Total no. of events", "setting": "Normal (n = 10)", "value": 8, "unit": "n"}, {"measurement": "Vomiting", "setting": "Normal (n = 10)", "value": "0 n (%)"}, {"measurement": "Any event", "setting": "Severe (n = 10)", "value": "4 (40) n (%)"}, {"measurement": "Dizziness", "setting": "Severe (n = 10)", "value": "0 n (%)"}, {"measurement": "Fatigue", "setting": "Severe (n = 10)", "value": "0 n (%)"}, {"measurement": "Headache", "setting": "Severe (n = 10)", "value": "1 (10) n (%)"}, {"measurement": "Hypoglycemia, Documented Symptomatic", "setting": "Severe (n = 10)", "value": "2 (20) n (%)"}, {"measurement": "Nausea", "setting": "Severe (n = 10)", "value": "0 n (%)"}, {"measurement": "Total no. of events", "setting": "Severe (n = 10)", "value": 8, "unit": "n"}, {"measurement": "Vomiting", "setting": "Severe (n = 10)", "value": "0 n (%)"}, {"measurement": "AUC Ratio", "setting": "Severe:Normal", "value": 1.39}, {"measurement": "Cmax Ratio", "setting": "Severe:Normal", "value": 1.23}, {"measurement": "AUC Ratio", "setting": "Severe:Normal, listed as albiglutide", "value": "1.39 (1.03, 1.89)"}, {"measurement": "subjects with a hypoglycemic SAE", "setting": "hemodialysis group, insulin-treated subject", "value": "One"}, {"measurement": "half-life, geometric mean", "setting": "participants with impaired renal function", "value": "141 to 145", "unit": "h"}, {"measurement": "half-life, geometric mean", "setting": "participants with normal renal function", "value": 122, "unit": "h"}, {"measurement": "observed increase in AUC", "setting": "patients with severe renal impairment", "value": "30 to 40", "unit": "%"}, {"measurement": "median time of peak concentrations (Tmax)", "setting": "regardless of the level of renal impairment", "value": "88 to 96", "unit": "h"}]}
